Target: HLA-A2 molecule (MHC class I heterodimer, no peptide of the filing added) (human)
Assay: titration of peptide in 0.174 cell lysate, HLA-A2 stabilisation, immunoprecipitation with BB7.2
Conditions: remark: other sources report otherwise

concentration at which the peptide titrated: 5 to 10 nM
Binder: ALSRKVAEL [peptide SEQ ID NO: 2, Ala Leu Ser Arg Lys Val Ala Glu Leu]

From US6682731
